Earlier results, collected in publication PMC11273449.

Experiments:
[1] = target: Spike S1 subunit, BA.1 (SARS-CoV-2 BA.1 (Omicron)) (UniProt P0DTC2); test: cited; conditions: 5' hexynyl
[2] = test system: Influenza A virion (Influenza A/PR/8/34); test: cited; conditions: 5' hexynyl

Sequence: TTTTTACGCCAAGGTGTCACTCCGTAGGGTTTGGCTCCGGGCCTGGCGTCGGTCGCGAAGCATCTCCTTGGCGT [Aptamer 4 (particle)]
- Kd [1]: 5 nM

Sequence: TTTTTGGCAGGAAGACAAACAGCCAGCGTGACAGCGACGCGTAGGGACCGGCATCCGCGGGTGGTCTGTGGTGCTGT [Influenza A aptamer (particle)]
- Kd [2]: 55 nM
